From patent US20250333521A1 (SYNTHEKINE, published 2025)
Substitutions are numbered along the chain they refer to.

Target: T1, human IL10Rb ECD antigen (human, UniProt Q08334 20-220)
T1 construct: Coat of the panning and PE-ELISA plates; also called hIL10Rb extracellular domain; IL10Rb (plate coat)
T1 sequence: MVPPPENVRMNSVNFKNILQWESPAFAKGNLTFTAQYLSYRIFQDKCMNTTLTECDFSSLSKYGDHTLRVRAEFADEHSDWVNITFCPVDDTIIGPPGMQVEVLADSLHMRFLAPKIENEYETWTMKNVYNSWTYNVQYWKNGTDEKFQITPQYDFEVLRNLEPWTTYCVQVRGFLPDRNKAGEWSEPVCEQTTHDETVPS
Test: periplasmic extract ELISA of phage clones on antigen-coated plate
Protocol: Upon completion of the biopanning of Example 3, three 96-well plates of individual phage clones were isolated in order to perform periplasmic extract ELISA (PE-ELISA) on IL10Rb coated plates to identify positive VHH binders that selectively bound IL10Rb. A 96-well plate was coated with IL10Rb and PBS under the same conditions. Next, wells were blocked at 37° C. for 1 h. Then, 100 μl of extracted antibodies was added to each well and incubated for 1 h. Subsequently, 100 μl of anti-tag polyclonal antibody conjugated to HRP was added to each well and incubated at 37° C. for 1 h. Plates were developed with TMB substrate. The reaction was stopped by the addition of H2SO4. Absorbance at 450 nm was read on a microtiter plate reader. Antibodies with absorbance of the antigen-coated well at least threefold greater than PBS-coated control are VHHs that specifically bind to IL10Rb. Positive clones were sequenced, and sequences analyzed to identify unique clonotypes

B1: hIL10Rb_VHH-4 (VHH)
VHH: QVQLQESGGGSIQAGGSLRLSCAASRYLYSIDYMAWFRQSPGKEREPVAVIYTASGATFYPDSVKGRFTISQDNAKMTVYLQMNSLKSEDTAMYYCAAVRKTDSYLFDAQSFTYWGQGTQVTVSS
notes: Periplasmic extract of the phage clone (pMECS, HA/His) as tested in PE-ELISA; not shown: HA/His tag of the pMECS phagemid
binding result: binds

B2: hIL10Rb_VHH-6 (VHH)
VHH: B1 VHH with R19T, Y27D, I31T, D32N, M34V, P47A, F59L, P61S, D103G, S104H
notes: as for B1
binding result: binds
